T1: WT MutS (Escherichia coli, UniProt P23909 1-853)
T1 sequence (looked up): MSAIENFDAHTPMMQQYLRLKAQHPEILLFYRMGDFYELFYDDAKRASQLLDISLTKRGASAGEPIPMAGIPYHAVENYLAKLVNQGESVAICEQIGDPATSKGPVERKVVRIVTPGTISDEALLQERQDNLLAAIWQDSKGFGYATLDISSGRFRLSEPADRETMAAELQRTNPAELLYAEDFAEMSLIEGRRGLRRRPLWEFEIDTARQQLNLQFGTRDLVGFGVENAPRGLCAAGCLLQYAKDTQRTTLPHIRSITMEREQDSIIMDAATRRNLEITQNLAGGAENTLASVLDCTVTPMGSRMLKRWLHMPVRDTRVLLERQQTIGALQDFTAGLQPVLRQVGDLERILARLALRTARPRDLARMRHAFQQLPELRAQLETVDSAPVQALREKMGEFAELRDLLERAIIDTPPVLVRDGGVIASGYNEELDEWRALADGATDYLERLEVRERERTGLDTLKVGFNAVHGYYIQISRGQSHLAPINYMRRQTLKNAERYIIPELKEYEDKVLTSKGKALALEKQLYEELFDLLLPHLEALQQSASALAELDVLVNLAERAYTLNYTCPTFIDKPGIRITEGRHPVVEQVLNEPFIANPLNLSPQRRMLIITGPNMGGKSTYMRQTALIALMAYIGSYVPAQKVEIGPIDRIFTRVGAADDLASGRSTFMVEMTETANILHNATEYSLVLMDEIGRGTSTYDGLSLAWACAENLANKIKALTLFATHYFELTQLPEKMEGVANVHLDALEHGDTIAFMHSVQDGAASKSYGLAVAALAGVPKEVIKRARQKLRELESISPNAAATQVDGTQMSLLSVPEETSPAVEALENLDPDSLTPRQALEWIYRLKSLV

B1: MutL WT (natural protein, UniProt P23367 1-615, looked up)
chain: MPIQVLPPQLANQIAAGEVVERPASVVKELVENSLDAGATRIDIDIERGGAKLIRIRDNGCGIKKDELALALARHATSKIASLDDLEAIISLGFRGEALASISSVSRLTLTSRTAEQQEAWQAYAEGRDMNVTVKPAAHPVGTTLEVLDLFYNTPARRKFLRTEKTEFNHIDEIIRRIALARFDVTINLSHNGKIVRQYRAVPEGGQKERRLGAICGTAFLEQALAIEWQHGDLTLRGWVADPNHTTPALAEIQYCYVNGRMMRDRLINHAIRQACEDKLGADQQPAFVLYLEIDPHQVDVNVHPAKHEVRFHQSRLVHDFIYQGVLSVLQQQLETPLPLDDEPQPAPRSIPENRVAAGRNHFAEPAAREPVAPRYTPAPASGSRPAAPWPNAQPGYQKQQGEVYRQLLQTPAPMQKLKAPEPQEPALAANSQSFGRVLTIVHSDCALLERDGNISLLSLPVAERWLRQAQLTPGEAPVCAQPLLIPLRLKVSAEEKSALEKAQSALAELGIDFQSDAQHVTIRAVPLPLRQQNLQILIPELIGYLAKQSVFEPGNIAQWIARNLMSEHAQWSMAQAITLLADVERLCPQLVKTPPGGLLQSVDLHPAIKALKDE

What was measured:
Experiment in all cases: SPR
[1] = target: MutS STAB4 (Escherichia coli) (UniProt P23909)
[2] = target: MutS STAB3 (Escherichia coli) (UniProt P23909)
[3] = target: MutS STAB1 (Escherichia coli) (UniProt P23909)
[4] = target: MutS STAB2 (Escherichia coli) (UniProt P23909)
[5] = target: T1, WT MutS

Molecule	Kd [1]	Kd [2]	Kd [3]	Kd [4]	Kd [5]
MutL WT (from UniProt P23367 1-615) (natural protein)	11 nM	17 nM	18 nM	16 nM	–
B1	–	–	–	–	15 nM
